Reference: doi:10.1101/2021.09.20.461157 (bioRxiv, 2021)

Biological target: the molecule itself
Assay: cryo-EM structure

B1: Mouse EHD4 (residues 22-541, EHD4^ΔN) (domain or fragment, UniProt Q9EQP2 22-541, looked up)
chain: QTVTGGLRSLYQRKVLPLEEAYRFHEFHSPALEDADFENKPMILLVGQYSTGKTTFIRYLLEQDFPGMRIGPEPTTDSFIAVMYGETEGSTPGNALVVDPKKPFRKLSRFGNAFLNRFMCSQLPNQVLKSISIIDSPGILSGEKQRISRGYDFCQVLQWFAERVDRIILLFDAHKLDISDEFSEAIKAFRGQDDKIRVVLNKADQVDTQQLMRVYGALMWSLGKVINTPEVLRVYIGSFWAQPLQNTDNRRLFEAEAQDLFRDIQSLPQKAAVRKLNDLIKRARLAKVHAYIISYLKKEMPNMFGKENKKRELIYRLPEIYVQLQREYQISAGDFPEVKAMQEQLENYDFTKFHSLKPKLIEAVDNMLTNKISSLMGLISQEEMNMPTQMVQGGAFDGTTEGPFNQGYGEGAKEGADEEEWVVAKDKPVYDELFYTLSPINGKISGVNAKKEMVTSKLPNSVLGKIWKLADCDCDGMLDEEEFALAKHLIKIKLDGYELPNSLPPHLVPPSHRKSLPKAD
  binding result: binds
